Results taken from patent publication US20260022175A1.

Key:
Assay in all cases: SPR Biacore 8k+ 25C, antibody captured, FcγR analyte; mean
[1] = target: human FcγRIIIa(F) extracellular domain with C-terminal His tag (human) (UniProt P08637)
[2] = target: human FcγRIIIa(V) extracellular domain with C-terminal His tag (human) (UniProt P08637)
[3] = target: cynomolgus monkey FcγRIa extracellular domain with His tag (cynomolgus monkey)
[4] = target: cynomolgus monkey FcγRIIa2 extracellular domain with His tag (cynomolgus monkey)
Sequence of cynomolgus monkey FcγRIIa2 extracellular domain with His tag (cynomolgus monkey) (chain, as listed by the source): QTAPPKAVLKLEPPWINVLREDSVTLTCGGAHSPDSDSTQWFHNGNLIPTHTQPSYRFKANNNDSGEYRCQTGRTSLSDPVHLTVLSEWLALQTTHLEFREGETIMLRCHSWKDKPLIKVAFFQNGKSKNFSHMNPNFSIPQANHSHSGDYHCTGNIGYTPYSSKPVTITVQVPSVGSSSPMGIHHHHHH

[5] = target: cynomolgus monkey FcγRIIb extracellular domain with His tag (cynomolgus monkey)
Sequence of cynomolgus monkey FcγRIIb extracellular domain with His tag (cynomolgus monkey) (chain, as listed by the source): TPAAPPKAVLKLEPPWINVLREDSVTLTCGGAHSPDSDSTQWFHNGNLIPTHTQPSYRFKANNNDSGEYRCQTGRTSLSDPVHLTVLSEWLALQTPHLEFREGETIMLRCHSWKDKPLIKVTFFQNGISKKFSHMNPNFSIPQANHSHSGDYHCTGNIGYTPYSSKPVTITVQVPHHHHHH

[6] = target: cynomolgus monkey FcγRIIIa(R) extracellular domain with His tag (cynomolgus monkey) (UniProt Q8SPW2)
Sequence of cynomolgus monkey FcγRIIIa(R) extracellular domain with His tag (cynomolgus monkey) (Q8SPW2 other isoform, or with tags, fused parts or gaps): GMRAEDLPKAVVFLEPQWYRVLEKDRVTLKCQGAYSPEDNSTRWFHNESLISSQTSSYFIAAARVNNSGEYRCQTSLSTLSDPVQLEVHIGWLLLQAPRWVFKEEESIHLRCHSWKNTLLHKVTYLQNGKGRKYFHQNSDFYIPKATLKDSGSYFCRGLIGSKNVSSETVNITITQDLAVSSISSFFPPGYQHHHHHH

[7] = target: cynomolgus monkey FcγRIIa3 extracellular domain with His tag (cynomolgus monkey)
Sequence of cynomolgus monkey FcγRIIa3 extracellular domain with His tag (cynomolgus monkey) (chain, as listed by the source): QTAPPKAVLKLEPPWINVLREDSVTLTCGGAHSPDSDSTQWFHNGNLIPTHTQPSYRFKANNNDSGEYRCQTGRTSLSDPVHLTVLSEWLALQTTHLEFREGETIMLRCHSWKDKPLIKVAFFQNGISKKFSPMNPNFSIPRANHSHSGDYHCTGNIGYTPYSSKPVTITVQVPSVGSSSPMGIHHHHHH

[8] = target: human FcγRIIa(H) extracellular domain with C-terminal His tag (human) (UniProt P12318)
Sequence of human FcγRIIa(H) extracellular domain with C-terminal His tag (human) (P12318 34-217): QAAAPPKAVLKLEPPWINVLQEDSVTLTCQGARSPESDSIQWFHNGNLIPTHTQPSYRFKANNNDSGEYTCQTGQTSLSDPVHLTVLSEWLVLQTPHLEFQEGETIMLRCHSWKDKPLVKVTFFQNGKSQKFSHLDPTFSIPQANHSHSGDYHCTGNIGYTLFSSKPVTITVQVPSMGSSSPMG

[9] = target: human FcγRIIa(R) extracellular domain with C-terminal His tag (human) (UniProt P12318)
Sequence of human FcγRIIa(R) extracellular domain with C-terminal His tag (human) (P12318 34-217 H167R): as the sequence (P12318 34-217) above, with H134R counted along it

[10] = target: human FcγRIa extracellular domain with C-terminal His tag (human) (UniProt P12314)
Sequence of human FcγRIa extracellular domain with C-terminal His tag (human) (P12314 other isoform, or with tags, fused parts or gaps): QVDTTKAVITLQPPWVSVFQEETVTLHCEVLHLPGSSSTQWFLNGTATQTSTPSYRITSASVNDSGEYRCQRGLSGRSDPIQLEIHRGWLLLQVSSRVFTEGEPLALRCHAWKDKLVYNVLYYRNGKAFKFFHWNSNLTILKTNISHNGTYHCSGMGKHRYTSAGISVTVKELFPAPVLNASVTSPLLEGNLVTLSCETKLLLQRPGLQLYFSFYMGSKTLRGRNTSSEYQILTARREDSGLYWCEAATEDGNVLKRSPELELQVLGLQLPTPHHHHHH

[11] = target: human FcγRIIb extracellular domain with C-terminal His tag (human) (UniProt P31994)
Sequence of human FcγRIIb extracellular domain with C-terminal His tag (human) (P31994 other isoform, or with tags, fused parts or gaps): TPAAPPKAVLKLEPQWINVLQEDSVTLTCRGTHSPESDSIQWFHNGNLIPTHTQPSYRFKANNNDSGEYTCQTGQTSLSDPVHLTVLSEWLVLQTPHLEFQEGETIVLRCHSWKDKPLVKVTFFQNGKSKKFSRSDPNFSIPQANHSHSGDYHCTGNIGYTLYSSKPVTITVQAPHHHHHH

[12] = target: cynomolgus monkey FcγRIIa1 extracellular domain with His tag (cynomolgus monkey)
Sequence of cynomolgus monkey FcγRIIa1 extracellular domain with His tag (cynomolgus monkey) (chain, as listed by the source): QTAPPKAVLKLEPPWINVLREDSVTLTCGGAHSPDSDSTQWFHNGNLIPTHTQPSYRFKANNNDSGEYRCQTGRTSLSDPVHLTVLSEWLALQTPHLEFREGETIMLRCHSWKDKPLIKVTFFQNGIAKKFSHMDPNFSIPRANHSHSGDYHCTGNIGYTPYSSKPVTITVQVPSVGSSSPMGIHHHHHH

[13] = target: cynomolgus monkey FcγRIIIa(S) extracellular domain with His tag (cynomolgus monkey) (UniProt Q8SPW2)
Sequence of cynomolgus monkey FcγRIIIa(S) extracellular domain with His tag (cynomolgus monkey) (Q8SPW2 other isoform, or with tags, fused parts or gaps): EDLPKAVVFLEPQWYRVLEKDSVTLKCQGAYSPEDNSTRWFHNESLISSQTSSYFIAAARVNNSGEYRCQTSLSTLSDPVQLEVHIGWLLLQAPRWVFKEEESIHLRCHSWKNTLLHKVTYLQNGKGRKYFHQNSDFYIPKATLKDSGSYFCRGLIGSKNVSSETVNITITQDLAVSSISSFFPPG

Sequence of cynomolgus monkey FcγRIa extracellular domain with His tag (cynomolgus monkey) (P12314 other isoform, or with tags, fused parts or gaps): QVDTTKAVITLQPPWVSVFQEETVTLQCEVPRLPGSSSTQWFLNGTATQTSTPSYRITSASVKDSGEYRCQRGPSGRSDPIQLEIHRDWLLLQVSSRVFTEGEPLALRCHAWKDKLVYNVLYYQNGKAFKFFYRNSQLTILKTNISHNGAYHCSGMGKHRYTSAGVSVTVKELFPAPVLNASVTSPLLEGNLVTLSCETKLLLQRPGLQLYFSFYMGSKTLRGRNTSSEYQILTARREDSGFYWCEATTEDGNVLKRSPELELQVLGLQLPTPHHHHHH
Sequence of human FcγRIIIa(F) extracellular domain with C-terminal His tag (human) (P08637 other isoform, or with tags, fused parts or gaps): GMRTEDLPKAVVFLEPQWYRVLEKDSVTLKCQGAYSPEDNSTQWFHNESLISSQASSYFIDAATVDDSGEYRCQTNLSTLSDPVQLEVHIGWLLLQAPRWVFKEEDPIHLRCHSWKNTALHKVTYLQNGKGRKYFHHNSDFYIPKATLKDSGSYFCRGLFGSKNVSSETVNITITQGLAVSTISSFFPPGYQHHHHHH
Sequence of human FcγRIIIa(V) extracellular domain with C-terminal His tag (human) (P08637 other isoform, or with tags, fused parts or gaps): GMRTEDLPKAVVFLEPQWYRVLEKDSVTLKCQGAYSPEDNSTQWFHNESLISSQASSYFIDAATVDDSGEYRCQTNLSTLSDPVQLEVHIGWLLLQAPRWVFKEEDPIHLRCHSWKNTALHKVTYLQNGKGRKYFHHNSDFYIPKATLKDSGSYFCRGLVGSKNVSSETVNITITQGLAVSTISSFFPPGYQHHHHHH

Kd [1]: 9090 nM
Kd [2]: 1020 nM
Kd [3]: 0.0109 nM
Kd [4]: 7530 nM
Kd [5]: 5670 nM
Kd [6]: 579 nM
Kd [7]: 39800 nM
Kd [8]: 1250 nM
Kd [9]: 1880 nM
Kd [10]: 0.0908 nM
Kd [11]: 16500 nM
Kd [12]: 6800 nM
Kd [13]: 497 nM
Substance: Tremfya (Janssen Pharmaceutical K.K) (antibody)
